This passage reports fold total 125I-TGF-β binding over mock transfectants results from patent US20080234216A1.

The assay deals with Truncated TGF-β type III receptor encoded by partial rat cDNA clone R3-OF (rat) (UniProt P26342). In words: total 125I-TGF-β binding per glass slide of COS cells transfected with the cDNA clone (calculated, data not shown).
Chain of Truncated TGF-β type III receptor encoded by partial rat cDNA clone R3-OF (rat) (P26342 24-818 L164V limits assumed): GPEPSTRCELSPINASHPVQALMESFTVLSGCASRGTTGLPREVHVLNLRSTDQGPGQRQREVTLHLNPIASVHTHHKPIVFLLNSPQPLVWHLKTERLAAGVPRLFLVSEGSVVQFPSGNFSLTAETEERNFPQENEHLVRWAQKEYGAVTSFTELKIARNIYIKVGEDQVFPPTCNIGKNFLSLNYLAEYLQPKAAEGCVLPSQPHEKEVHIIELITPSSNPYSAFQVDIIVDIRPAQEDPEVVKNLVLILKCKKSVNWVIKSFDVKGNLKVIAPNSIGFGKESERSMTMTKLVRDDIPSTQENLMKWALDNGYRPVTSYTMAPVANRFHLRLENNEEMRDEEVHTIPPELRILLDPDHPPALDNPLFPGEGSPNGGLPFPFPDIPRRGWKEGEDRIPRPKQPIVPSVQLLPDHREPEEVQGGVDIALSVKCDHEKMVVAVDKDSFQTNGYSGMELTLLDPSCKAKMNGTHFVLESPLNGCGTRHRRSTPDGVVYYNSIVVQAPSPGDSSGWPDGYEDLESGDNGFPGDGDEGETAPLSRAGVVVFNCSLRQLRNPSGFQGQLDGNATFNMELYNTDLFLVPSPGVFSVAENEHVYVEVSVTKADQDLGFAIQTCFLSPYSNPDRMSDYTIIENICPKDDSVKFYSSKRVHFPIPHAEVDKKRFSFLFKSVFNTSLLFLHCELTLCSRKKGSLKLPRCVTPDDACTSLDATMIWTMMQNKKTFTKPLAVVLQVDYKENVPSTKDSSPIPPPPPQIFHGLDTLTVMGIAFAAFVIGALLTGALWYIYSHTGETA

Chain of Recombinant human TGF-β1 (P01137 279-390 limits assumed): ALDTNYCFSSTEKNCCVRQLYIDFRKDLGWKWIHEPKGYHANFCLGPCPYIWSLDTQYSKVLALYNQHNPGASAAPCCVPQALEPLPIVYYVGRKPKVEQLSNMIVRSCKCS

As to “Recombinant human TGF-β1 (from UniProt P01137 279-390) (ligand)”, the fold total 125I-TGF-β binding over mock transfectants is 2 fold.
